Measurements reported in the Human Domainome abundance scans (Beltran et al. 2025).
± gives the uncertainty stated by the source.

B1: POU domain, class 3, transcription factor 2, residues 356 to 411; numbered along this chain, P20265 (parent)
chain: KKRTSIEVSVKGALESHFLKCPKPSAQEITSLADSLQLEKEVVRVWFCNRRQKEKR
B2: Cytoplasmic polyadenylation element-binding protein 2, residues 513 to 575; numbered along this chain, Q7Z5Q1 (parent)
chain: KRVEVKPYVLDDQMCDECQGARCGGKFAPFFCANVTCLQYYCEFCWANIHSRAGREFHKPLVK

Variants of: B1
Experiment: abundance fitness (aPCA) (normalised: wild type 0, dead -1); higher = more abundant; growth selection in yeast, the domain comes from the species named
Conditions: Homo sapiens

Abundance fitness of substitutions, site by site:
K1: G -0.214 ± 0.13, M -0.244 ± 0.24, R -0.302 ± 0.17, T -0.206 ± 0.14, S -0.273 ± 0.15, V -0.072 ± 0.28, Y -0.382 ± 0.44, D 0.082 ± 0.15, N -0.012 ± 0.2, A -0.237 ± 0.21, I -0.397 ± 0.22, L -0.498 ± 0.46
K2: C -0.395 ± 0.2, A -0.154 ± 0.15

Variants of: B2
Experiment: as above
Conditions: Homo sapiens

Abundance fitness of substitutions, site by site:
W46: F 0.027 ± 0.052, K -0.829 ± 0.1, C -0.401 ± 0.084, I -0.444 ± 0.074, R -0.571 ± 0.07, L -0.335 ± 0.052, N -0.33 ± 0.04, H -0.328 ± 0.059, A -0.503 ± 0.06, P -0.624 ± 0.09, G -0.567 ± 0.082, D -0.684 ± 0.091, Q -0.624 ± 0.14, E -0.658 ± 0.17, M -0.336 ± 0.092, Y -0.154 ± 0.052, V -0.573 ± 0.062, T -0.558 ± 0.052
A47: N 0.127 ± 0.11, K 0.091 ± 0.063, E -0.001 ± 0.087, W -0.133 ± 0.065, P -0.175 ± 0.039, V -0.192 ± 0.058, L -0.18 ± 0.047, F -0.235 ± 0.062, Y -0.114 ± 0.088, I -0.073 ± 0.064, Q -0.01 ± 0.085, C -0.318 ± 0.062, H -0.17 ± 0.061, R -0.041 ± 0.042, D 0.102 ± 0.06, M 0.019 ± 0.053
L61: D 0.04 ± 0.083, T 0.076 ± 0.052, A 0.092 ± 0.044, R -0.014 ± 0.042, W -0.137 ± 0.045, E 0.146 ± 0.051, Y -0.197 ± 0.081, N 0.033 ± 0.077, G 0.076 ± 0.042, F -0.11 ± 0.079, S 0.12 ± 0.04, H -0.048 ± 0.11, C 0.091 ± 0.059, V 0.091 ± 0.041, K 0.065 ± 0.064, I 0.071 ± 0.072, Q 0.116 ± 0.057, M 0.012 ± 0.056
C45: L -1.14 ± 0.081, P -0.932 ± 0.1, T -1.01 ± 0.099, W -1.04 ± 0.11, R -1.05 ± 0.066, A -0.77 ± 0.078, H -0.733 ± 0.1, K -1.11 ± 0.15, I -1.1 ± 0.25, S -1.1 ± 0.094, E -1.16 ± 0.14, M -1.24 ± 0.14, Q -0.994 ± 0.14, Y -0.917 ± 0.085, F -1.2 ± 0.17, V -1.32 ± 0.1
F44: C 0.053 ± 0.063, P 0.082 ± 0.048, E 0.033 ± 0.048, L 0.007 ± 0.038, V 0.044 ± 0.046, A 0.05 ± 0.043, D -0.109 ± 0.1, G 0.015 ± 0.039, Q 0.124 ± 0.061, R -0.038 ± 0.032, S -0.012 ± 0.038, T 0.003 ± 0.048, W -0.067 ± 0.043, Y 0.059 ± 0.096, N -0.056 ± 0.055, M -0.145 ± 0.057, K -0.046 ± 0.058
S51: K 0.106 ± 0.066, R 0.116 ± 0.035, A 0.045 ± 0.057, T 0.006 ± 0.063, N 0.091 ± 0.079, F -0.239 ± 0.065, H -0.054 ± 0.07, L -0.021 ± 0.041, D 0.174 ± 0.056, Q 0.102 ± 0.06, G 0.051 ± 0.037, M 0.029 ± 0.051, P -0.118 ± 0.053, V -0.025 ± 0.039, W -0.267 ± 0.054
K59: V -0.2 ± 0.05, A -0.118 ± 0.053, W -0.46 ± 0.047, G -0.255 ± 0.045, C -0.199 ± 0.05, L -0.219 ± 0.05, H -0.226 ± 0.072, E 0.168 ± 0.055, N -0.248 ± 0.075, F -0.541 ± 0.089, P -0.247 ± 0.06, Y -0.351 ± 0.092, S 0.021 ± 0.04, I -0.3 ± 0.08, R 0.024 ± 0.038, Q -0.076 ± 0.079, D -0.132 ± 0.069, T -0.041 ± 0.059
H58: W -1.01 ± 0.08, L -0.707 ± 0.061, M -0.653 ± 0.091, T -0.611 ± 0.082, K -0.384 ± 0.062, R -0.763 ± 0.049, Y -0.822 ± 0.11, V -0.704 ± 0.062, P -0.51 ± 0.1, Q -0.663 ± 0.1, E -0.442 ± 0.069, I -0.679 ± 0.15, S -0.523 ± 0.058, F -0.934 ± 0.11, D -0.704 ± 0.086, C -0.227 ± 0.062, A -0.743 ± 0.066
R52: N 0.004 ± 0.08, F -0.071 ± 0.084, G 0.02 ± 0.034, K 0.118 ± 0.068, Q 0.119 ± 0.058, L -0.017 ± 0.039, V 0.102 ± 0.031, S 0.085 ± 0.05, W -0.225 ± 0.061, M 0.064 ± 0.057, D 0.156 ± 0.073, A 0 ± 0.045, I 0.029 ± 0.072, Y -0.088 ± 0.097, E 0.079 ± 0.045, C -0.077 ± 0.14
G54: E -0.065 ± 0.064, V -0.32 ± 0.039, L -0.146 ± 0.046, W -0.259 ± 0.061, P -0.004 ± 0.057, T -0.112 ± 0.068, M -0.299 ± 0.07, S -0.009 ± 0.043, I -0.176 ± 0.16, H -0.123 ± 0.094, N 0.108 ± 0.11, K -0.195 ± 0.1
K63: S -0.034 ± 0.13, R -0.105 ± 0.092, G 0.1 ± 0.1, N -0.091 ± 0.11, Q -0.044 ± 0.11, P 0.367 ± 0.3, A 0.125 ± 0.16, V -0.112 ± 0.062, T -0.079 ± 0.085, Y -0.408 ± 0.14, D -0.641 ± 0.21, M -0.111 ± 0.14, H -0.014 ± 0.11, E 0.014 ± 0.082, W -0.415 ± 0.09
P60: G -0.341 ± 0.049, F -0.937 ± 0.21, W -0.817 ± 0.069, E -0.412 ± 0.072, H -0.226 ± 0.13, R -0.052 ± 0.041, A -0.051 ± 0.046, V -0.331 ± 0.049, T -0.558 ± 0.1, M -0.157 ± 0.064, N -0.057 ± 0.12, L -0.517 ± 0.048, C -0.154 ± 0.075, Q 0.051 ± 0.046
I49: Y 0.026 ± 0.051, G -0.284 ± 0.072, N -0.221 ± 0.058, D -0.186 ± 0.07, M -0.184 ± 0.1, S -0.015 ± 0.036, T -0.139 ± 0.047, A 0.017 ± 0.066, L -0.033 ± 0.04, C -0.443 ± 0.12, E -0.461 ± 0.23, R -0.006 ± 0.058, Q -0.132 ± 0.067, K -0.127 ± 0.07, V -0.01 ± 0.061, P -0.43 ± 0.055, W -0.268 ± 0.096, F -0.044 ± 0.055
R55: G -0.176 ± 0.055, D -0.08 ± 0.06, H -0.131 ± 0.087, A -0.03 ± 0.052, L 0.04 ± 0.035, E -0.142 ± 0.071, S -0.041 ± 0.037, N -0.019 ± 0.079, T -0.165 ± 0.055, Q -0.058 ± 0.073, F 0.035 ± 0.051, M 0.031 ± 0.049, Y 0.211 ± 0.057, C -0.194 ± 0.09, P -0.463 ± 0.066, I 0.104 ± 0.1, V -0.1 ± 0.046
V62: R 0.105 ± 0.42, M 0.081 ± 0.22, D -0.164 ± 0.22, S -0.081 ± 0.34, A -0.193 ± 0.47, I -0.103 ± 0.1
A53: R 0.055 ± 0.03, P 0.157 ± 0.046, E 0.082 ± 0.055, M -0.045 ± 0.057, L -0.092 ± 0.033, N 0.152 ± 0.086, T 0.082 ± 0.046, F -0.045 ± 0.056, S 0.053 ± 0.031, K 0.142 ± 0.051, W -0.287 ± 0.049, Y -0.098 ± 0.064, V -0.006 ± 0.038, C -0.091 ± 0.068, H 0.053 ± 0.064, Q 0.106 ± 0.058, I -0.079 ± 0.076, D 0.02 ± 0.088
N48: G 0.074 ± 0.059, L 0.014 ± 0.043, P -0.141 ± 0.054, F -0.071 ± 0.047, C -0.033 ± 0.083, Q -0.028 ± 0.052, E 0.104 ± 0.088, A -0.001 ± 0.046, D 0.007 ± 0.07, M 0.068 ± 0.071, T 0.024 ± 0.052, R 0.029 ± 0.045, S 0.032 ± 0.039, Y -0.112 ± 0.05, I -0.02 ± 0.047, V -0.003 ± 0.061, H 0.049 ± 0.047, K 0.164 ± 0.081
E43: W -0.136 ± 0.051, Y -0.146 ± 0.058
H50: Y -0.806 ± 0.13, A -0.674 ± 0.07, F -0.904 ± 0.11, R -0.775 ± 0.064, E -0.546 ± 0.066, G -0.637 ± 0.05, K -0.673 ± 0.082, Q -0.727 ± 0.094, W -0.784 ± 0.093, N -0.827 ± 0.18, S -0.723 ± 0.051, I -0.992 ± 0.18, L -0.965 ± 0.069, P -0.81 ± 0.042, T -0.742 ± 0.093, M -0.875 ± 0.1
F57: L 0.091 ± 0.046, S 0.129 ± 0.049, M 0.144 ± 0.066, C 0.098 ± 0.064, I -0.109 ± 0.11, T 0.121 ± 0.061, D 0.054 ± 0.073, G 0.166 ± 0.035, W 0.026 ± 0.049, R 0.097 ± 0.038, E 0.117 ± 0.047, A 0.125 ± 0.049, Y -0.032 ± 0.077, P -0.029 ± 0.052, H 0.027 ± 0.044, V 0.065 ± 0.048, N 0.134 ± 0.076
E56: Y -0.271 ± 0.091, S -0.128 ± 0.044, L -0.253 ± 0.043, F -0.235 ± 0.057, Q -0.214 ± 0.08, M -0.154 ± 0.052, D -0.035 ± 0.081, H -0.158 ± 0.068, A -0.357 ± 0.061, K 0.035 ± 0.066, N -0.111 ± 0.088, C -0.195 ± 0.056, W -0.573 ± 0.057, R -0.01 ± 0.037, V -0.373 ± 0.05, P -0.31 ± 0.054
